Data taken from patent publication US20210032312A1 (Janssen / Centocor, published 2021).

What was measured:
human CD8A-Fc (in house) = molecular target: T1, human CD8A-Fc (in house) (human, UniProt P01732 22-182, limits assumed); assay: SPR (ProteOn), captured hCD8A-Fc
T1 construct: captured by goat anti-human Fc on the ProteOn chip; also called hCD8A-Fc; recombinant human CD8 alpha; not shown: linker/tag and Fc of human IgG1

[1] = molecular target: T2, cynomolgus monkey CD8 alpha on primary cynomolgus CD8+ T cells (cynomolgus monkey, UniProt P01732 23-235 (human entry)); assay: flow cytometry, cyno CD8+ T cells
T2 construct: also called Cyno CD8alpha; cyno CD8A
T2 sequence (P01732 other isoform, or with tags, fused parts or gaps limits assumed): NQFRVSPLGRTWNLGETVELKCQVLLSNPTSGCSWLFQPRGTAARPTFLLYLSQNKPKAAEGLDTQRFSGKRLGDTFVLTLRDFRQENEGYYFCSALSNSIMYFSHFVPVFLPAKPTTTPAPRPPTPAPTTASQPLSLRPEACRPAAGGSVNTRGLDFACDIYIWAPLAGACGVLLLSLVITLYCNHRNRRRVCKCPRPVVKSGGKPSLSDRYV

[2] = molecular target: T3, human CD8 alpha (CD8A) on primary human CD8+ T cells (human, UniProt P01732 22-235); assay: flow cytometry, human CD8+ T cells
T3 construct: whole, on cells; also called hCD8A
T3 sequence (P01732 22-235): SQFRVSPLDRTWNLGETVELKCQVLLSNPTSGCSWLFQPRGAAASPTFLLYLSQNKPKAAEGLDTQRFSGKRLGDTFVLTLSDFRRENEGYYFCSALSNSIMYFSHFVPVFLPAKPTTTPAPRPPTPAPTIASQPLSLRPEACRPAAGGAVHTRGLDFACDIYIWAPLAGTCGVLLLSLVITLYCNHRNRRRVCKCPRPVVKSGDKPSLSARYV

T1 sequence (P01732 22-182 limits assumed): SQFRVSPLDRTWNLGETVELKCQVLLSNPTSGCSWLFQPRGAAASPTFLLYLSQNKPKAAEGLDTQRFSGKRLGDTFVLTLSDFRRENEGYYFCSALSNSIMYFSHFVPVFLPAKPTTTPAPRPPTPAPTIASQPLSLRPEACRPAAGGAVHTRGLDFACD

Row | koff (human CD8A-Fc (in house)) [s⁻¹] | Cyno T-cell Binding 0.2 uM (MFI) [1] [MFI] | Cyno T-cell Binding 2 uM (MFI) [1] [MFI] | Human T-cell Binding 0.2 uM (MFI) [2] [MFI] | Human T-cell Binding 2 uM (MFI) [2] [MFI] | Binder
1 | 0.00018 | 3540 | 20600 | 3510 | 14300 | P283HR7P1368_F6 (designed binder, FN3 domain) LPAPKNLVVSRVTEDSARLSWTAPDAAFDSFGIGYIEWVHRGEAISLHVPGSERSYDLTGLKPGTEYVVAIVGVKGGEPSTPLGAPFTT
2 | 0.00145 | 2660 | 23800 | 753 | 8120 | P283HR7P1368_G10 (designed binder, FN3 domain) LPAPKNLVVSRVTEDSARLSWTAPDAAFDSFGIAYVEWWHRGEAISLPVPGSERSYDLTGLKPGTEYWVTILGVKGGIISTPLGASFTT
3 | 0.0013 | 950 | 11100 | 1910 | 15200 | P283HR7P1368_D2 (designed binder, FN3 domain) LPAPKNLVVSRVTEDSARLSWTAPDAAFNSFGIGYAEPAVTGEAISLSVPGSERSYDLTGLKPGTEYWVVIIGVKGGINSYPLGASFTT
4 | 0.000235 | 23500 | 53000 | 6850 | 29000 | P283HR7P1368_D4 (designed binder, FN3 domain) LPAPKNLVVSRVTEDSARLSWTAPDAAFDSFAIWCVEPIPEGEAIPLFVPGSERSYDLTGLKPGTEYRVGIRGVKGGTFSSPLAAPFTT
5 | 0.000763 | 4890 | 35900 | 1610 | 22800 | P283HR7P1368_H8 (designed binder, FN3 domain) LPAPKNLVVSRVTEDSARLSWTAPDAAFDSFGITYLDPRNGEAISLNVPGSERSYDLTGLKPGTEYWVVIIGVKGGINSYPLGASFTT
6 | 0.000552 | 1970 | 17300 | 2460 | 15400 | P283HR7P1368_H1 (designed binder, FN3 domain) LPAPKNLVVSRVTEDSARLSWTAPDAAFDSFGIAYIETARWGEAISLTVPGSERSYDLTGLKPGTEYNVVIIGVKGGTPSHPLGAPFTT
7 | 0.000165 | 1020 | 16100 | 2660 | 18800 | P283HR7P1368_F10 (designed binder, FN3 domain) LPAPKNLVVSRVTEDSARLSWTAPDAAFDSFYIPYRESEFRGEAIALPVPGSERSYDLTGLKPGTKYRVIIIGVKGGEFSQPLGAIFTT
8 | 0.00215 | 11600 | 69800 | 4940 | 31300 | P283HR7P1368_G1 (designed binder, FN3 domain) LPAPKNLVVSRVTEDSARLSWTAPDAAFDSFLITYWEIEPEGEAIFLGVPGSERSYDLTGLKPGTEYRVQINGVKGGTISYPLFAGFTT

The remaining lines, values behind:

Row | Binder | koff (human CD8A-Fc (in house)) [s⁻¹] | Cyno T-cell Binding 0.2 uM (MFI) [1] [MFI] | Cyno T-cell Binding 2 uM (MFI) [1] [MFI] | Human T-cell Binding 0.2 uM (MFI) [2] [MFI] | Human T-cell Binding 2 uM (MFI) [2] [MFI]
9 | P283ER9P1365_A1 (designed binder, FN3 domain) LPAPKNLVVSRVTEDSARLSWTAPDAAFDSFGIAYVEWWHRGEAISLPVPGSERSYDLTGLKPGTEYNVIITGVKGGIPSHPLGAIFTT | 0.000467 | 1360 | 9680 | 3860 | 25500
10 | P283HR7P1368_G11 (designed binder, FN3 domain) LPAPKNLVVSRVTEDSARLSWTAPDAAFDSFGIGYAEPAVTGEAISLSVPGSERSYDLTGLKPGTEYWVVIIGVKGGINSYPLGASFTT | 0.000373 | 1340 | 14900 | 2650 | 19300
11 | P283HR7P1368_C3 (designed binder, FN3 domain) LPAPKNLVVSRVTEDSARLSWTAPDAAFDSFGIGYAEPAVTGEAISLSVPGSKRSYDLTGLKPGTEYWVVIIGVKGGINSYPLGASFTT | 0.000349 | 1310 | 13300 | 2220 | 12700
12 | P283ER9P1365_B6 (designed binder, FN3 domain) LPAPKNLVVSRVTEDSARLSWTAPDAAFDSFGIGYAEPVVTGEAISLSVPGSERSYDLTGLKPGTEYWVVIIGVKGGINSYPLGAIFTT | 0.000288 | 2690 | 30100 | 3400 | 23000
13 | P283ER9P1365_G3 (designed binder, FN3 domain) LPAPKNLVVSRVTEDSARLSWTAPDAAFDSFGISYYEWAPNGEAIQLSVPGSERSYDLTGLKPGTEYHVVIIGVKGGEPSHPLGAIFTT | 0.0025 | 1470 | 3480 | 2920 | 12500
14 | P283HR7P1368_B12 (designed binder, FN3 domain) LPAPKNLVVSRVTEDSARLSWTAPDAAFDSFGIGYVEFTRAGEAISLSVPGSERSYDLTGLKPGTEYHVVIIGVKGGEPSHPLGAPFTT | 4.53e-05 | 826 | 18600 | 1540 | 13400
15 | P283ER9P1365_E2 (designed binder, FN3 domain) LPAPKNLVVSRVTEDSARLSWTAPDAAFDSFYIPYRESEFRGEAIALPVPGSERSYDLTGLKPGTKYRVIIIGVKGGEFSQPLAAIFTT | 0.000311 | 1900 | 17200 | 2870 | 20000
16 | P283ER9P1365_F4 (designed binder, FN3 domain) LPAPKNLVVSRVTEDSARLSWTAPDAAFDSFYIPYRESEFRGEAIALPVPGSERSYDLTGLKPGTKYSVIIIGVKGGEFSQPLGAIFTT | 0.000216 | 2040 | 43200 | 2600 | 24100
17 | P283ER9P1365_G1 (designed binder, FN3 domain) LPAPKNLVVSRVTEDSARLSWTAPDAAFDSFYIPYRESEFRGEAIALSVPGSERSYDLTGLKPGTKYRVIIIGVKGGEFSQPLGAIFTT | 0.00367 | 383 | 489 | 318 | 1280
18 | P283ER9P1365_A7 (designed binder, FN3 domain) LPAPKNLVVSRVTEDSARLSWTAPDAAFDSFYIPYWESEVYGEAIALPVPGSERSYDLTGLKPGTEYQVSIIGVKGGVYSQPLAAIFTT | 0.000786 | 2960 | 36600 | 1320 | 18500
19 | P283ER9P1365_C1 (designed binder, FN3 domain) LPAPKNLVVSRVTEDSARLSWTAPDAAFDSFYIPYWESEVYGEAIALPVTGSERSYDLTGLKPGTEYQVSIIGVKGGVYSQPLAAIFTT | 0.00115 | 1880 | 24000 | 644 | 8000
20 | P283ER9P1365_H3 (designed binder, FN3 domain) LPAPKNLVVSRVTEDSARLSWTAPDAAFDSFYIPYRESEFRGEAIALPVPGSERSYDLTGLKPGTKYRVIIIGVKGGEFSQPLSAIFTT | 0.000375 | 436 | 19600 | 953 | 18000
21 | P283BR9P1363_G7 (designed binder, FN3 domain) LPAPKNLVVSRVTEDSARLSWSAKKFPRHFDSFLIQYQESEKVGEAIVLTVPGSERSYDLTGLKPGTEYTVSIYGVDVKWEGNRPVASNPLSAIFTT | 4.01e-05 | 3020 | 7210 | 2340 | 4640
22 | P283BR9P1363_G2 (designed binder, FN3 domain) LPAPKNLVVSRVTEDSARLSWPKNQTNRHFDSFLIQYQESEKVGEAIVLTVPGSERSYDLTGLKPGTEYTVSIYGVDVKWEGNRPVASNPLSAIFTT | 0.000122 | 5380 | 15900 | 3230 | 9640
23 | P283BR9P1363_F4 (designed binder, FN3 domain) LPAPKNLVVSRVTEDSARLSWERIVQTPHFDSFLIQYQESEKVGEAIVLTVPGSERSYDLTGLKPGTEYTVSIYGVDVKWEGNRPVASNPLSAIFTT | 0.000155 | 4480 | 20200 | 2960 | 11900
24 | P283BR9P1363_E6 (designed binder, FN3 domain) LPAPKNLVVSRVTEDSARLSWYARKFISPFDSFLIQYQESEKVGEAIVLTVPGSERSYDLTGLKPGTEYTVSIYGVDVKWEGNRPVASNPLSAIFTT | 0.00136 | 3720 | 16800 | 2080 | 8240
